Literature values as cited in patent publication US20100183645A1, “ACTIVE OR PASSIVE IMMUNIZATION AGAINST PROAPOPTOTIC NEUROTROPHINS FOR THE TREATMENT AND/OR PREVENTION OF NEURODEGENERATIVE DISEASES” (INSTITUT PASTEUR, priority 2003, published 2010).
No end group written: not given here.

Molecular target: T1, p75NTR (Homo sapiens, UniProt P08138)
T1 sequence (P08138 29-427): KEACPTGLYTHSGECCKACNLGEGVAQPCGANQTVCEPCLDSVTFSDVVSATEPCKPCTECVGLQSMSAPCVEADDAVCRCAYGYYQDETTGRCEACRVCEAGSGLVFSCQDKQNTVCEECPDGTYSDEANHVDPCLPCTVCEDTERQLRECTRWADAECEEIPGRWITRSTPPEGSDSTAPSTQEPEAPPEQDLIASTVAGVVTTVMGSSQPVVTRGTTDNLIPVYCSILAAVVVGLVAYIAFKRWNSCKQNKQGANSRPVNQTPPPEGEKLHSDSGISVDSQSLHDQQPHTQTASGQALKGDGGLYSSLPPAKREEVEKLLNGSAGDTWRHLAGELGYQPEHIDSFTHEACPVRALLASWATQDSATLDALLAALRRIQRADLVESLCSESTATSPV
Conditions: Beglova et al, 2000; Saragovi et al, 2000, 2002; cited from earlier work

short cyclic peptide derived from an exposed loop of mature NGF (residues C30-C35): short cyclic peptide from an exposed loop of mature NGF, involved in NGF-p75NTR interactions (DIKGKE; also: cyclic peptide, ring closure not given here; UniProt P01139 151-156, looked up, fragment)
Blocking of neurotrophin binding to p75NTR: specifically block
